The values below come from US20260274955A1 (JANUX THERAPEUTICS, published 2026).

The target in assay [1] is Anti-CD28 Fab (SEQ ID NOs: 202, 203). The experiment in a line: phage binding ELISA on captured Fab.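 Also: clonal phage supernatants added briefly to wells pre-incubated with CD28 antigen or with blocking buffer only, then washed, bound phage read by ELISA using HRP-coupled anti-M13 antibody.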 In general terms: An ELISA detects its analyte on a solid surface through an enzyme-linked reagent.
Target sequence in this assay (VH, as listed by the source, chain 1 of 2): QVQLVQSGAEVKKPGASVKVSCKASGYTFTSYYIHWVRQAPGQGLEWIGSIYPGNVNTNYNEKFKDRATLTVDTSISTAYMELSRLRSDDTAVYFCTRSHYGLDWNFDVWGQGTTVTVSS
Target sequence in this assay (VL, as listed by the source, chain 2 of 2): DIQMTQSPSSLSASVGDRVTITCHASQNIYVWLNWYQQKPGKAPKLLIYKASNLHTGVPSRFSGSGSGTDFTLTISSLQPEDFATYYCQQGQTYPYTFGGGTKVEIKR
Protocol: Clonal phage were harvested as crude supernatants and screened via standard ELISAs. […] Prior to the addition of clonal phage, wells were incubated with blocking buffer and CD28 antigen or blocking buffer alone. Without washing or aspirating, clonal phage supernatants were then added to the wells and incubated for a short time. Wells were then washed followed by detection of bound phage using a horse radish conjugated anti-M13 antibody.
The target in assay [2] is T1, Anti-CD28 Fab (SEQ ID NOs: 202, 203).
T1 construct: biotinylated and captured on neutravidin coated plates in the phage ELISA
Nature of the assay: phage ELISA, Fab on plate, CD28 antigen as competitor.
T1 sequence (VH, as listed by the source, chain 1 of 2): as the sequence (VH, as listed by the source, chain 1 of 2) above
T1 sequence (VL, as listed by the source, chain 2 of 2): as the sequence (VL, as listed by the source, chain 2 of 2) above
Protocol: After panning, phage infected bacteria were plated out and colonies picked into 96 well blocks. Clonal phage was then amplified and separated from bacterial cells via centrifugation.
Clonal phage were harvested as crude supernatants and screened via standard ELISAs. […] Prior to the addition of clonal phage, wells were incubated with blocking buffer and CD28 antigen or blocking buffer alone. Without washing or aspirating, clonal phage supernatants were then added to the wells and incubated for a short time. Wells were then washed followed by detection of bound phage using a horse radish conjugated anti-M13 antibody. Clonal phage of interest were then sent for sequence analysis.

The target is the same in assay [3]. The experiment in a line: phage ELISA, Fab on plate.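 Also: crude clonal phage supernatants added to wells pretreated with blocking buffer with or without CD28 antigen, then bound phage read out via HRP-linked anti-M13 antibody.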
Target sequence in this assay (VH, as listed by the source, chain 1 of 2): as the sequence (VH, as listed by the source, chain 1 of 2) above
Target sequence in this assay (VL, as listed by the source, chain 2 of 2): as the sequence (VL, as listed by the source, chain 2 of 2) above

Regarding YCDGHVGAYMWKCL [Phage-771], the “Anti-CD28 Fab (SEQ ID NOs: 202, 203) signal” value in assay [1] is 0.99.

In the case of YCEGHSQEYKAKCF [Phage-802], the “Anti-CD28 Fab (SEQ ID NOs: 202, 203) signal” value in assay [1] was determined as 0.9.

As for YCVGHLPQYMQKCL [Phage-599], the “Anti-CD28 Fab signal in the presence of CD28” value (“Anti-CD28 Fab signal” for short) in assay [2] amounted to 0.06. The “Anti-CD28 Fab (SEQ ID NOs: 202, 203) signal” value in assay [3] amounted to 1.43. Taken in the same sequence, the figures for YCDGHLDEYMLKCL [Phage-603] were 0.06 and 1.43. As for YCDGHLEVYMSKCL [Phage-767], the “Anti-CD28 Fab (SEQ ID NOs: 202, 203) signal” value in assay [1] is 1. For the molecule YCDGHSPAFIQKCL [Phage-606], the “Anti-CD28 Fab signal” value in assay [2] worked out at 0.08. Also, the “Anti-CD28 Fab (SEQ ID NOs: 202, 203) signal” value in assay [3] came out at 1.42. As for YCDGHIAEYRSKCL [Phage-810], the “Anti-CD28 Fab (SEQ ID NOs: 202, 203) signal” value in assay [1] was found to be 0.87.

As for YCDGHLPEYIAKCQ [Phage-600], the “Anti-CD28 Fab signal” value in assay [2] turned out to be 0.07. Also, in assay [3], the “Anti-CD28 Fab (SEQ ID NOs: 202, 203) signal” value was found to be 1.43.

Regarding YCEGHLSEYIGKCL [Phage-811], the “Anti-CD28 Fab (SEQ ID NOs: 202, 203) signal” value in assay [1] came out at 0.87. With YCDGHLLMYMEKCL [Phage-800], the “Anti-CD28 Fab (SEQ ID NOs: 202, 203) signal” value in assay [1] is 0.91.

Turning to YCQGHSPNYITKCF [Phage-608], the “Anti-CD28 Fab signal” value in assay [2] is 0.06. The “Anti-CD28 Fab (SEQ ID NOs: 202, 203) signal” value in assay [3] was determined as 1.41. As for YCFGHAPEYLLKCL [Phage-763], the “Anti-CD28 Fab (SEQ ID NOs: 202, 203) signal” value in assay [1] turned out to be 1.01. With YCEGHRPEYMANCL [Phage-768], the “Anti-CD28 Fab (SEQ ID NOs: 202, 203) signal” value in assay [1] was determined as 1. YCDGHNWEYMEKCL [Phage-622]: in assay [2], the “Anti-CD28 Fab signal” value was found to be 0.05. Regarding YCEGHIEPYMQKCL [Phage-769], the “Anti-CD28 Fab (SEQ ID NOs: 202, 203) signal” value in assay [1] turned out to be 0.99. Take YCDGHSLEYIEKCL [Phage-601]: the “Anti-CD28 Fab signal” value in assay [2] is 0.06. In addition, the “Anti-CD28 Fab (SEQ ID NOs: 202, 203) signal” value in assay [3] came out at 1.43.

On to YCEGHSSVYLWKCL [Phage-765], for which, in assay [1], the “Anti-CD28 Fab (SEQ ID NOs: 202, 203) signal” value was 1. On to YCDGHSLEYIDKCM [Phage-607], for which the “Anti-CD28 Fab signal” value in assay [2] worked out at 0.09. In assay [3], the “Anti-CD28 Fab (SEQ ID NOs: 202, 203) signal” value was found to be 1.42. For YCAGHSQVYMWKCL [Phage-761], the “Anti-CD28 Fab (SEQ ID NOs: 202, 203) signal” value in assay [1] amounted to 1.02. As to YCEGHDWMYMEKCL [Phage-801], in assay [1], the “Anti-CD28 Fab (SEQ ID NOs: 202, 203) signal” value was 0.91. Same read-out and setting: then YCDGHFTWYMAKCL [Phage-809], with 0.87; and YCEGHSWIYIAKCL [Phage-766], with 1. For the molecule YCEGHIEQYMRKCL [Phage-762], in assay [1], the “Anti-CD28 Fab (SEQ ID NOs: 202, 203) signal” value is 1.01. With YCEGHSQQYMQKCL [Phage-605], in assay [2], the “Anti-CD28 Fab signal” value stood at 0.08. Also, the “Anti-CD28 Fab (SEQ ID NOs: 202, 203) signal” value in assay [3] amounted to 1.42. Taken in the same sequence, the figures for YCEGHSQTYMWKCL [Phage-709] were 0.08 and 1.17. For YCEGHSQQYMWKCL [Phage-711], in assay [2], the “Anti-CD28 Fab signal” value was determined as 0.05. In addition, in assay [3], the “Anti-CD28 Fab (SEQ ID NOs: 202, 203) signal” value came to 1.17.

For YCEGHSYQYMQKCL [Phage-715], in assay [2], the “Anti-CD28 Fab signal” value came to 0.06. For the same molecule, the “Anti-CD28 Fab (SEQ ID NOs: 202, 203) signal” value in assay [3] was 1.16. Take YCDGHKPEYMDKCL [Phage-770]: the “Anti-CD28 Fab (SEQ ID NOs: 202, 203) signal” value in assay [1] was found to be 0.99. For YCDGHTAQYMWKCL [Phage-812], the “Anti-CD28 Fab (SEQ ID NOs: 202, 203) signal” value in assay [1] was found to be 0.87.

YCEGHISEYMGKCL [Phage-808]: in assay [1], the “Anti-CD28 Fab (SEQ ID NOs: 202, 203) signal” value was 0.88. The same measure, in the same setting: under YCDGHTEAYMSKCL [Phage-807] stands 0.88. Consider YCEGHLREYMLKCL [Phage-764], for which the “Anti-CD28 Fab (SEQ ID NOs: 202, 203) signal” value in assay [1] amounted to 1.01. Turning to YCLGHSWPYIHKCY [Phage-602], in assay [2], the “Anti-CD28 Fab signal” value worked out at 0.07. In addition, the “Anti-CD28 Fab (SEQ ID NOs: 202, 203) signal” value in assay [3] was 1.43. On the same counts, the results for YCDGHTPEYMWKCL [Phage-604] are 0.06 and 1.43.

For the molecule YCDGHTKEYMWKCL [Phage-736], the “Anti-CD28 Fab signal” value in assay [2] amounted to 0.06. Moreover, the “Anti-CD28 Fab (SEQ ID NOs: 202, 203) signal” value in assay [3] was found to be 1.1. On to YCDGHVLMYLAKCL [Phage-803], for which, in assay [1], the “Anti-CD28 Fab (SEQ ID NOs: 202, 203) signal” value worked out at 0.9. Still for that read-out and setting: under YCDGHSTLYMQKCL [Phage-806] stands 0.88. As to YCDGHAPEYLGKCL [Phage-609], the “Anti-CD28 Fab signal” value in assay [2] was determined as 0.06. The “Anti-CD28 Fab (SEQ ID NOs: 202, 203) signal” value in assay [3] was determined as 1.41.

In the case of YCEGHLAAYMYKCL [Phage-805], the “Anti-CD28 Fab (SEQ ID NOs: 202, 203) signal” value in assay [1] stood at 0.89.
